# From the supplement of paper PMC5998384
# Legend:
# [1] = system: HeLa Kyoto; assay: solubility in G1/S (NP-40 vs SDS abundance) (log2 ratio); higher = more soluble; settings: cell cycle stage: G1/S
# [2] = system: HeLa Kyoto; assay: melting temperature (median over replicates), in situ; higher = more thermally stable
# [3] = system: HeLa Kyoto; assay: solubility change mitosis vs G1/S (difference of NP-40 vs SDS log2 ratios) (log2 ratio difference); higher = more soluble in mitosis
# [4] = system: HeLa Kyoto; assay: thermal stability score vs G1/S (z-score of summed log2 fold changes over temperatures); higher = more thermally stable than in G1/S
# [5] = cell cycle stage: early G1 (4.5 h after nocodazole release)
# 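Wherever melting temperature (median over replicates), in situ is given: HeLa Kyoto cells synchronized by double thymidine or nocodazole block, proteins quantified by TMT10plex mass spectrometry, three independent biological replicates.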
# 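Wherever solubility change mitosis vs G1/S (difference of NP-40 vs SDS log2 ratios) is given: synchronized HeLa Kyoto cells (double thymidine block for G1/S, nocodazole release for mitosis), protein amounts in NP-40 versus SDS lysates quantified by mass spectrometry, three biological replicates.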
# 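Wherever solubility in G1/S (NP-40 vs SDS abundance) is given: HeLa Kyoto cells arrested at G1/S by double thymidine block, proteins quantified by TMT10plex mass spectrometry in mild NP-40 versus SDS extracts, three biological replicates.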
# 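Wherever thermal stability score vs G1/S (z-score of summed log2 fold changes over temperatures) is given: synchronized HeLa Kyoto cells, proteins quantified by TMT10plex mass spectrometry, three biological replicates, mitosis taken 0.5 h after nocodazole release, G1/S directly after double thymidine block.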
# Sequence of OXCT1 (chain, as listed by the source): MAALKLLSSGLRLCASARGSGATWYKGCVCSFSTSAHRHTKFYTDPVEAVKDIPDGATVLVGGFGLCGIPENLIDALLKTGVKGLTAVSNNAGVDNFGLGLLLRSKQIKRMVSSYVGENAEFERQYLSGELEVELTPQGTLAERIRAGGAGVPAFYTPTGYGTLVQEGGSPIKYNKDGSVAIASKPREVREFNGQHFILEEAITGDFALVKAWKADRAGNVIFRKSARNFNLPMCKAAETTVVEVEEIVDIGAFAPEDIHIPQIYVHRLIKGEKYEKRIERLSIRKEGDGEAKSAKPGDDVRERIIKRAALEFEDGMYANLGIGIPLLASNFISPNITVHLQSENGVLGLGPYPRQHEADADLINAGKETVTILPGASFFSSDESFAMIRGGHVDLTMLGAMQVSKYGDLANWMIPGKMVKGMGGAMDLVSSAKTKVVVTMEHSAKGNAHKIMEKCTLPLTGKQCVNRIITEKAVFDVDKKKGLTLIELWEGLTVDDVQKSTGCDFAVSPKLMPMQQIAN
Substance,solubility in G1/S (log2) [1],melting temperature ([2]; cell cycle stage: G1/S) [°C],melting temperature ([2]; cell cycle stage: mitosis) [°C],solubility change mitosis (log2) [3],"thermal stability score [4, 5]",thermal stability score ([4]; cell cycle stage: mitosis)
MYGASGGRAKPERKSGAKEEAGPGGAGGGGSRVELLVFGYACKLFRDDERALAQEQGQHLIPWMGDHKILIDRYDGRGHLHDLSEYDAEYSTWNRDYQLSEEEARIEALCDEERYLALHTDLLEEEARQEEEYKRLSEALAEDGSYNAVGFTYGSDYYDPSEPTEEEEPSKQREKNEAENLEENEEPFVAPLGLSVPSDVELPPTAKMHAIIERTASFVCRQGAQFEIMLKAKQARNSQFDFLRFDHYLNPYYKFIQKAMKEGRYTVLAENKSDEKKKSGVSSDNEDDDDEEDGNYLHPSLFASKKCNRLEELMKPLKVVDPDHPLAALVRKAQADSSTPTPHNADGAPVQPSQVEYTADSTVAAMYYSYYMLPDGTYCLAPPPPGIDVTTYYSTLPAGVTVSNSPGVTTTAPPPPGTTPLPPPTTAETSSGATSTTTTTSALAPVAAIIPPPPDVQPVIDKLAEYVARNGLKFETSVRAKNDQRFEFLQPWHQYNAYYEFKKQFFLQKEGGDSMQAVSAPEEAPTDSAPEKPSDAGEDGAPEDAAEVGARAGSGGKKEASSSKTVPDGKLVKASFAPISFAIKAKENDLLPLEKNRVKLDDDSDDDEESKEGQESSSSAANTNPAVAPPCVVVEEKKPQLTQEELEAKQAKQKLEDRLAAAAREKLAQASKESKEKQLQAERKRKAALFLQTLKNPLPEAEAGKIEESPFSVEESSTTPCPLLTGGRPLPTLEVKPPDRPSSKSKDPPREEEKEKKKKKHKKRSRTRSRSPKYHSSSKSRSRSHSKAKHSLPSAYRTVRRSRSRSRSPRRRAHSPERRREERSVPTAYRVSRSPGASRKRTRSRSPHEKKKKRRSRSRTKSKARSQSVSPSKQAAPRPAAPAAHSAHSASVSPVESRGSSQERSRGVSQEKEAQISSAIVSSVQSKITQDLMAKVRAMLAASKNLQTSAS [SFSWAP],-0.526,50.4,50.6,0.468,-0.391,-0.0438
MAARAGFQSVAPSGGAGASGGAGAAAALGPGGTPGPPVRMGPAPGQGLYRSPMPGAAYPRPGMLPGSRMTPQGPSMGPPGYGGNPSVRPGLAQSGMDQSRKRPAPQQIQQVQQQAVQNRNHNAKKKKMADKILPQRIRELVPESQAYMDLLAFERKLDQTIMRKRLDIQEALKRPIKQKRKLRIFISNTFNPAKSDAEDGEGTVASWELRVEGRLLEDSALSKYDATKQKRKFSSFFKSLVIELDKDLYGPDNHLVEWHRTATTQETDGFQVKRPGDVNVRCTVLLMLDYQPPQFKLDPRLARLLGIHTQTRPVIIQALWQYIKTHKLQDPHEREFVICDKYLQQIFESQRMKFSEIPQRLHALLMPPEPIIINHVISVDPNDQKKTACYDIDVEVDDTLKTQMNSFLLSTASQQEIATLDNKIHETIETINQLKTQREFMLSFARDPQGFINDWLQSQCRDLKTMTDVVGNPEEERRAEFYFQPWAQEAVCRYFYSKVQQRRQELEQALGIRNT [SMARCD1],0.347,47.4,49.3,-0.0288,0.481,1.5
MAAAEEEPKPKKLKVEAPQALRENILFGMGNPLLDISAVVDKDFLDKYSLKPNDQILAEDKHKELFDELVKKFKVEYHAGGSTQNSIKVAQWMIQQPHKAATFFGCIGIDKFGEILKRKAAEAHVDAHYYEQNEQPTGTCAACITGDNRSLIANLAAANCYKKEKHLDLEKNWMLVEKARVCYIAGFFLTVSPESVLKVAHHASENNRIFTLNLSAPFISQFYKESLMKVMPYVDILFGNETEAATFAREQGFETKDIKEIAKKTQALPKMNSKRQRIVIFTQGRDDTIMATESEVTAFAVLDQDQKEIIDTNGAGDAFVGGFLSQLVSDKPLTECIRAGHYAASIIIRRTGCTFPEKPDFH [ADK],0.242,56.3,56.9,-0.112,1.79,2.86
FRYL,-0.239,49.7,52.1,-0.116,-0.342,0.441
OXCT1,0.23,53,52.8,-0.0718,-1.63,-1.92
MAQESPKNSAAEIPVTSNGEVDDSREHSFNRDLKHSLPSGLGLSETQITSHGFDNTKEGVIEAGAFQGSPAPPLPSVMSPSRVAASRLAQQGSDLIVPAGGQRTQTKSGPVILADEIKNPAMEKLELVRKWSLNTYKCTRQIISEKLGRGSRTVDLELEAQIDILRDNKKKYENILKLAQTLSTQLFQMVHTQRQLGDAFADLSLKSLELHEEFGYNADTQKLLAKNGETLLGAINFFIASVNTLVNKTIEDTLMTVKQYESARIEYDAYRTDLEELNLGPRDANTLPKIEQSQHLFQAHKEKYDKMRNDVSVKLKFLEENKVKVLHNQLVLFHNAIAAYFAGNQKQLEQTLKQFHIKLKTPGVDAPSWLEEQ [ARFIP1],0.623,51.2,50.9,-0.00419,-0.0158,0.558
MISAAQLLDELMGRDRNLAPDEKRSNVRWDHESVCKYYLCGFCPAELFTNTRSDLGPCEKIHDENLRKQYEKSSRFMKVGYERDFLRYLQSLLAEVERRIRRGHARLALSQNQQSSGAAGPTGKNEEKIQVLTDKIDVLLQQIEELGSEGKVEEAQGMMKLVEQLKEERELLRSTTSTIESFAAQEKQMEVCEVCGAFLIVGDAQSRVDDHLMGKQHMGYAKIKATVEELKEKLRKRTEEPDRDERLKKEKQEREEREKEREREREERERKRRREEEEREKERARDRERRKRSRSRSRHSSRTSDRRCSRSRDHKRSRSRERRRSRSRDRRRSRSHDRSERKHRSRSRDRRRSKSRDRKSYKHRSKSRDREQDRKSKEKEKRGSDDKKSSVKSGSREKQSEDTNTESKESDTKNEVNGTSEDIKSEGDTQSN [LUC7L3],-0.95,50.1,50.8,0.0899,0.00947,2.68
MESGQPARRIAMAPLLEYERQLVLELLDTDGLVVCARGLGADRLLYHFLQLHCHPACLVLVLNTQPAEEEYFINQLKIEGVEHLPRRVTNEITSNSRYEVYTQGGVIFATSRILVVDFLTDRIPSDLITGILVYRAHRIIESCQEAFILRLFRQKNKRGFIKAFTDNAVAFDTGFCHVERVMRNLFVRKLYLWPRFHVAVNSFLEQHKPEVVEIHVSMTPTMLAIQTAILDILNACLKELKCHNPSLEVEDLSLENAIGKPFDKTIRHYLDPLWHQLGAKTKSLVQDLKILRTLLQYLSQYDCVTFLNLLESLRATEKAFGQNSGWLFLDSSTSMFINARARVYHLPDAKMSKKEKISEKMEIKEGEETKKELVLESNPKWEALTEVLKEIEAENKESEALGGPGQVLICASDDRTCSQLRDYITLGAEAFLLRLYRKTFEKDSKAEEVWMKFRKEDSSKRIRKSHKRPKDPQNKERASTKERTLKKKKRKLTLTQMVGKPEELEEEGDVEEGYRREISSSPESCPEEIKHEEFDVNLSSDAAFGILKEPLTIIHPLLGCSDPYALTRVLHEVEPRYVVLYDAELTFVRQLEIYRASRPGKPLRVYFLIYGGSTEEQRYLTALRKEKEAFEKLIREKASMVVPEEREGRDETNLDLVRGTASADVSTDTRKAGGQEQNGTQQSIVVDMREFRSELPSLIHRRGIDIEPVTLEVGDYILTPEMCVERKSISDLIGSLNNGRLYSQCISMSRYYKRPVLLIEFDPSKPFSLTSRGALFQEISSNDISSKLTLLTLHFPRLRILWCPSPHATAELFEELKQSKPQPDAATALAITADSETLPESEKYNPGPQDFLLKMPGVNAKNCRSLMHHVKNIAELAALSQDELTSILGNAANAKQLYDFIHTSFAEVVSKGKGKK [ERCC4],-0.215,49.6,50.4,-0.274,0.278,0.608
MSLKLQASNVTNKNDPKSINSRVFIGNLNTALVKKSDVETIFSKYGRVAGCSVHKGYAFVQYSNERHARAAVLGENGRVLAGQTLDINMAGEPKPDRPKGLKRAASAIYSGYIFDYDYYRDDFYDRLFDYRGRLSPVPVPRAVPVKRPRVTVPLVRRVKTNVPVKLFARSTAVTTSSAKIKLKSSELQAIKTELTQIKSNIDALLSRLEQIAAEQKANPDGKKKGDGGGAGGGGGGGGSGGGGSGGGGGGGSSRPPAPQENTTSEAGLPQGEARTRDDGDEEGLLTHSEEELEHSQDTDADDGALQ [RALY],0.116,47.1,49.4,0.275,2.9,8.45
